From the Human Domainome abundance scans (Beltran et al. 2025)

B1: SWI/SNF complex subunit SMARCC1, residues 620 to 663; numbered along this chain, Q92922 (parent)
chain: GREWTEQETLLLLEALEMYKDDWNKVSEHVGSRTQDECILHFLR
B2: SWI/SNF complex subunit SMARCC2, residues 599 to 641; numbered along this chain, Q8TAQ2 (parent)
chain: REWTEQETLLLLEALEMYKDDWNKVSEHVGSRTQDECILHFLR

Variants of: B1
Assay: abundance fitness (aPCA) (normalised: wild type 0, dead -1); higher = more abundant; growth selection in yeast, the domain comes from the species named
Details: Homo sapiens

Abundance fitness of substitutions, site by site:
G1: F -0.122, W -0.293, A 0.081, H -0.147, D 0.277, Y 0.191, R -0.383, I 0.128
E6: D -0.164, L -0.234, A 0.071, Q 0.212, Y -0.178, N -0.17, K 0.181, R -0.137, P -0.264, F -0.265, M 0.099, T -0.12, S -0.441, G -0.194, V -0.227, C -0.069, W -0.155, I -0.12
W4: M -0.141, S -0.08, N -0.265, E 0.023, H -0.4, C -0.526, G -0.153, I 0.253, D -0.168, A -0.254, R -0.084, T -0.134, L -0.285, V -0.147, Y -0.23
Q7: I 0.341, T 0.075, R 0.206, P -0.381, V -0.227, L -0.578, G -0.052
E8: Q -0.098, W -1.06, C -0.616, A -0.808, S -1.01, Y -1.21, I -0.746, H -0.54, V -1, N -0.584, D -0.76, P -0.593, F -0.702, M -0.482, T -0.651, L -0.936, G -0.861
T9: C -0.015, E -0.037, H -0.023, N -0.04, M 0.037, D -0.075, Q 0.319, F 0.004, A -0.085, L -0.044, S -0.01, P -0.449, R 0.252, G -0.098, K 0.158, Y -0.022, I 0.264, W -0.595
T5: G -0.755, R -0.241, L -0.174, P -0.572, Y -0.116, I -0.201, A -0.363, Q -0.127, N -0.086, M 0.11, K 0.03, C -0.14, H -0.513, W -0.693, E 0.081, D -0.069, V -0.461
L10: E 0.082, S 0.147, R 0.158, F -0.008, H 0.084, A -0.019, T 0.237, N -0.247, C 0.243, P -0.287, V -0.04, I -0.016, Q 0.251, K 0.176, M -0.21
R2: G -0.051, L -0.719, A 0.288, N 0.288, V 0.086, T 0.174, W -0.023, K 0.244, Y -0.04, C 0.084, Q -0.298, F 0.253, I 0.415, S -0.147, E 0.145, D 0.237
E3: P 0.077, M -0.063, Y 0.229, A -0.04, S 0.329, V 0.312, F 0.178, C -0.353, D 0.311, W -0.674, Q 0.12, G 0.158, L -0.03

Variants of: B2
Assay: as above
Details: Homo sapiens

Abundance fitness of substitutions, site by site:
L11: P -1.19, R -0.635, E -0.628, H -0.457, A -0.364
K24: W -0.351, V -0.389, A 0.124, C -0.148, N -0.501, R 0.064, T -0.005
H40: D -0.173, P -0.589, L -0.41, M -0.148
T33: L -0.019, I -0.721
T4: W -0.623
Q6: M 0.144, T -0.191, N 0.046, G 0.002, R -0.003, F -0.211, Y -0.206, E -0.485
V29: A -0.695, H -0.931, D -0.714, E -0.711, L -0.07
L10: A -0.424, G -0.171
W22: G -0.615, T -0.433
E36: W -0.855, L -1.02, K -0.507, Q 0.08, D -0.003
F41: G 0.417, Q 0.375, D 0.344, P 0.43
E5: S -0.506, C -0.104, R -0.339, I -0.178
Q34: R 0.014, K 0.316, M -0.282, P 0.02
D35: S 0.087, Y -0.486, V -0.556
L39: G 0.149, F -0.024, Y -0.108, A 0.154, P -0.24
Y18: L -0.731, H 0.106, W -0.093, D -0.283, V -0.419, I -0.152, R -0.626, Q -0.478
N23: F 0.046, G 0.112, C 0.123, Y -0.285, H -0.009, P 0.17
T8: K 0.075, H 0.291, S -0.102, G 0.156, F -0.224
I38: A 0.149, R 0.428, Q 0.098, D -0.015, M 0.151
E2: L 0.21, P 0.278, F -0.463, M 0.135, T 0.414
E27: V -0.515, Q -0.244, G -0.038
L42: V 0.343, Q 0.351, S 0.376, K 0.895, D 0.726
R32: A -0.456, F -0.417, E -0.472, D -1.04, C -0.432, P -1.36
L15: D 0.232, G -0.067, C 0.087, H 0.551, F -0.211
L9: A 0.142, V -0.023, R 0.168, I 0.11, Y -0.024, N 0.099, M 0.2
R1: E 0.251, V 0.316, C 0.225
W3: Y -0.354, M -0.181, Q -0.247, G -0.424
K19: F -0.151, H -0.272, T -0.003, R -0.115, L -0.458, D -0.143, C -0.314
E7: K -0.921, W -1.27, Q 0.1, D -0.557, R -0.887, T -0.745, N -0.948
H28: K -0.242, G -0.341, P -0.86, A -0.381, L -0.433, W -0.138, F -0.401, Q -0.26, C -0.376
E13: M -0.222, V -0.469, I -0.742, D -0.182, R -0.172
E16: Y -0.54, H -0.294, Q -0.186, V -0.501
V25: W -0.522, I 0.235, P -0.823, R -0.331, H -0.578, G -0.755, D -0.478, Y -0.798
S31: Y 0.015, P -0.434
A14: P -0.987, R -0.741, H -1.05, N -0.57
S26: H 0.095, Q -0.449, W -0.517, F -0.709, L -0.27
G30: K -0.011, D -0.07, W -0.832, S -0.143, A -0.057, F -0.325, Y -0.143
D20: N -0.031, F -0.357, W -0.237, Y -0.072
D21: S -0.057, K -0.065
C37: T -0.525, K -0.328, S -0.428
